{"source": "paper PMC7438487", "about": "“Structural studies reveal flexible roof of active site responsible for ω-transaminase CrmG overcoming by-product inhibition” (Communications Biology, 2020)", "proteins": {"B1": {"name": "CrmG (Actinoalloteichus sp. WH1-2216-6) (protein)", "chain": "MTHPSGEPVYADAVLNGWLTSMGLGVEYVRAEGNTVYYLDDEGREVPVLDHACGFGSLIFGHNHPEIIAHAKAALDAGTVVHAQLSRQPRANQISRILNDIMRRETGRDDRYNAIFANSGAEANEICMKHAELERQERITALFAEIDAELDTAREALTTGTATLDTASLPLVGGGAGDVDGVIADIHRHNDERRAERPLFLTLDGSFHGKLVGSIQLTQNEPWRTPFTALSSPARFLPADEPELIGKIVEDERRSVLTLSLDKDTVRVVERDFPVVAAIFVEPVRGGSGMKTVTPELAEELHRLRDTLGCPLVVDEVQTGIGRTGAFFGSALLGIRGDYYTLAKAIGGGIVKNSVALIRQDRFLPAMEVIHSSTFAKDGLSASIALKVLEMVEADGGRVYQRVRERGQRLEAMLESVRADHSDVVSAVWGTGLMLALELRDQSNATSQAIREKAAHGFLGYVLAGFLLREHHIRVLPAGPRSGFLRFSPSLYITDEEIDRTETALRSLFTALRDQDGDRLVLS", "notes": "pET28a, N-terminal His-tag and 14 additional vector residues; expressed in E. coli BL21; dimer (114 kDa by DLS)"}}, "key": {"[1]": {"substrate": "NC(=O)CC[C@H](N)C(=O)O", "assay": "transamination kinetics with CRM M as acceptor; crystal structure", "assay_type": "biochemical, Actinoalloteichus sp. WH1-2216-6", "conditions": "0.2 mM CRM M, 80 μM PLP, 4 μM CrmG, 200 mM Tris pH 7.5, 30 °C, no external aldimine in crystal"}, "[2]": {"substrate": "N[C@@H](CCC(=O)O)C(=O)O", "assay": "transamination kinetics with CRM M as acceptor; crystal structure of external aldimine", "assay_type": "biochemical, Actinoalloteichus sp. WH1-2216-6", "conditions": "0.2 mM CRM M, 80 μM PLP, 4 μM CrmG, 200 mM Tris pH 7.5, 30 °C, covalent PLP-Glu external aldimine in crystal"}, "purified protein": {"substrate": "C[C@H](N)C(=O)O", "assay": "purified protein", "conditions": "0.2 mM CRM M, 80 μM PLP, 4 μM CrmG, 200 mM Tris pH 7.5, 30 °C, covalent PLP-Ala external aldimine in crystal"}}, "data": [{"protein": "B1", "values": [{"measurement": "Km", "setting": "[1]", "value": 182.70, "unit": "µM"}, {"measurement": "Km", "setting": "[2]", "value": 80.02, "unit": "µM"}, {"measurement": "Km", "setting": "purified protein", "value": 405.10, "unit": "µM"}]}]}
